Data reported in article PMC3002279, “Polyphosphate Kinase from M. tuberculosis: An Interconnect between the Genetic and Biochemical Role” (PLoS ONE, 2010).

Target: the molecule itself
Experiment: SEC; […] (50 mM Tris pH 7.5, 150 mM NaCl, 4 mM MgCl2, 10% glycerol) […]

B1: Polyphosphate Kinase (PPK) from M. tuberculosis, recombinant, untagged (enzyme)
chain: MMSNDRKVTEIENSPVTEVRPEEHAWYPDDSALAAPPAATPAAISDQLPSDRYLNRELSWLDFNARVLALAADKSMPLLERAKFLAIFASNLDEFYMVRVAGLKRRDEMGLSVRSADGLTPREQLGRIGEQTQQLASRHARVFLDSVLPALGEEGIYIVTWADLDQAERDRLSTYFNEQVFPVLTPLAVDPAHPFPFVSGLSLNLAVTVRQPEDGTQHFARVKVPDNVDRFVELAAREASEEAAGTEGRTALRFLPMEELIAAFLPVLFPGMEIVEHHAFRITRNADFEVEEDRDEDLLQALERELARRRFGSPVRLEIADDMTESMLELLLRELDVHPGDVIEVPGLLDLSSLWQIYAVDRPTLKDRTFVPATHPAFAERETPKSIFATLREGDVLVHHPYDSFSTSVQRFIEQAAADPNVLAIKQTLYRTSGDSPIVRALIDAAEAGKQVVALVEIKARFDEQANIAWARALEQAGVHVAYGLVGLKTHCKTALVVRREGPTIRRYCHVGTGNYNSKTARLYEDVGLLTAAPDIGADLTDLFNSLTGYSRKLSYRNLLVAPHGIRAGIIDRVEREVAAHRAEGAHNGKGRIRLKMNALVDEQVIDALYRASRAGVRIEVVVRGICALRPGAQGISENIIVRSILGRFLEHSRILHFRAIDEFWIGSADMMHRNLDRRVEVMAQVKNPRLTAQLDELFESALDPCTRCWELGPDGQWTASPQEGHSVRDHQESLMERHRSP
notes: also called M. tu PPK; M.tu PPK
  stoichiometry N: 4
